The record followed here is PMC4991794.

The target in this data set is T1, SenRc (His-tagged response regulator) (Streptomyces coelicolor A3(2)) (UniProt Q9KXW5).
T1 sequence: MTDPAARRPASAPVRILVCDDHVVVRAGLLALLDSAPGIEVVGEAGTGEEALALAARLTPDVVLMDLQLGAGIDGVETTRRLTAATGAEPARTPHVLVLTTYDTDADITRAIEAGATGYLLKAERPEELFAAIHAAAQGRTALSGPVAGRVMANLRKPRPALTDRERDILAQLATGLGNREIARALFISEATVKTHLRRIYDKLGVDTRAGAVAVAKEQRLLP
Briefly: EMSA. To be noted: 10 mM Tris-HCl pH 7.5, 5% glycerol, 40 mM KCl, 1 mM MgCl2, 2 mM DTT, 10 ug/ml BSA; 30 C, 15 min; 30 ul with 20 ng or 25 ng (Methods) DNA; 7% ….
On to “CACCGGATACCTGTTGAAGGCCGAACGCCCCGAGGAGCTGTTCGCGGCCATCCACGCCGCCGCCCAGGGCCGTACGGCACTGTCCGGGCCGGTCGCCGGCCGGGTCATGGCCAACCTGCGCAAGCCGCGCCCCGCCCTCACCGACCGCGAGCGCGACATCCTGGCCCAGCTCGCCACCGGGCTCGGCAACCGGGAGATCGCCCGCGCCCTGTTCATCAG (double strand) [in-senRc]”, for which the binding entry is “no binding”.

As to “CACGTCGACCTCGGCCGCATGTCCAGCGCCATCTGTCCGGGCCGCTGAGAGCACTCTCCAGCACCTCCGGATTCCCCGCATTCACCTCGCTCCCGCGCAATGACGCGCACGCGTGTCTCACGTATGCCCACGTAGTGCCATGCGCCATGCGCGCAGGTCAGAGCCGTTTCCACCTGTCTCCAAAGGACGTGTCACACCATGGCCGCCACTC (double strand) [up-SCO6102]”, the binding result is “binds”.

On to “CTCGTACGTCCGTTTCGGGGGCTCGAAGACGGCTTCGCGCCCCCCGCCGTGCCCCCACGCTTACACGTTCCGGCCTGTACGCGTCCGTTTCCGGCACCCCAAATGAACCGTCCCTGGCTCCAAGGTGAACTCTGGGCGACGAGTGTTCGAGGTCGCACCCGGATGGCTGGGGCCGGACGGTTCGCCGTGCCTAACCTGGAGACATGGACGTGAAC (double strand) [up-SCO4229]”, for which the binding result was “binds”.

For “GAAAGCATGGGTGTTAAAGTCGTGTGCATGAAGCAAGCAGCCGCGCCCACCACACCACAGCGCCTCGCGCTCGTGGCGCGCCTGCACGTGGACCTCTGCCGGTGCGCGTCCGCGAACTGTCGCCCCTGACGTTCCCCCCTCACCAGTCGTCCCCACGTCAGCTCAGCGCGTCCCATCCCGCGTCCCGTCCCCCTACGGAGCATGTCCGTGTG (double strand) [up-SCO4498]”, the binding entry is recorded as “binds”.

As to “GAGGAAGCCCGGTGCGAATCCGGCGCGGTCCCGCCACTGTGACCGGGGACAGGATCCCCGGGAGCCAGGAACTCTCGCCGCCGTGCTCTTCGAACCAGGGCGCGGACACCCTGAGTGAGGACCTATCGCCATGCGCGGCTGCCGTTCCGGGCTCACCAGCGACACGCTTCGACTTCCCCTTCCCACGGCCGGTTGAGCCGTGCGTGCC (double strand) [up-SCO1847]”, the binding result is reported as “binds”.

As for “GAGTGGCGGCCATGGTGTGACACGTCCTTTGGAGACAGGTGGAAACGGCTCTGACCTGCGCGCATGGCGCATGGCACTACGTGGGCATACGTGAGACACGCGTGCGCGTCATTGCGCGGGAGCGAGGTGAATGCGGGGAATCCGGAGGTGCTGGAGAGTGCTCTCTTCAAGCTTGACAGATGGCGCTGGACATGCGGCCGAGGTCGACGTG (double strand) [up-SCO6102*]”, the binding result is recorded as “no binding”.

As for “GGCACGTGCGCGCACGCCTGTCCAGTCCGAGGACCTGCCGACAGTGCGCCCGGCCGCCCTGGCCCGGGTGCCATGACGTCCGGGCCTCGCGGAGTGGGCCGGTGGACGCGACGCCGCGTGCGCTCGTGAGCTGCCCCCTGCCCTCCCTCCGCCGGGCCCCGTGCCGAGCGAGGGAGTGCTCCACGTGACCATCGCGCCAG (double strand) [up-SCO5226]”, the binding entry is on record as “binds”.

Turning to “GTTCACGTCCATGTCTCCAGGTTAGGCTCGTCGAAGATCAAGCTTGAGCCATCCGGGTGGGACCTCGAACACTCGTCGCCCAGAGTTCACCTTGGAGCCAGGGACGGTTCATTTGGGGTGCCGGAAACGGACGCGTACAGGCCGGAACGTGTAAGCGTGGGGGCACGGCGGGGGGCGCGAAGCCGTCTTCGAGCCCCCGAAACGGACGTACGAG (double strand) [up-SCO4229*]”, the binding result is “no binding”.
